Patent US20040265295

Biological target: T1, His-PIPKIγ661 C-terminus, wild-type (439-661)
T1 chain: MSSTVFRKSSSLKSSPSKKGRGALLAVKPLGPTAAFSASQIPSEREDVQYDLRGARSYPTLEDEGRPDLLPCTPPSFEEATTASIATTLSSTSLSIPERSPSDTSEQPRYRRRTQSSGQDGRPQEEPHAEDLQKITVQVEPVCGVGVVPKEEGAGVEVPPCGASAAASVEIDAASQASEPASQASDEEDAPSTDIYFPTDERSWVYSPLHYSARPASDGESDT

B1: focal adhesion-associated kinase (FAK) (protein)
chain: MAAAYLDPNLNHTPSSSTKTHLGTGMERSPGAMERVLKVFHHFESSSEPTTWASIIRHGDATDVRGIIQKIVDSHKVKHVACYGFRLSHLRSEEVHWLHVDMGVSSVREKYELAHPPEEWKYELRIRYLPKGFLNQFTEDKPTLNFFYQQVKSDYMQEIADQVDQEIALKLGCLEIRRSYWEMRGNALEKKSNYEVLEKDVGLKRFFPKSLLDSVKAKTLRKLIQQTFRQFANLNREESILKFFEILSPVYRFDKECFKCALGSSWIISVELAIGPEEGISYLTDKGCNPTHLADFNQVQTIQYSNSEDKDRKGMLQLKIAGAPEPLTVTAPSLTIAENMADLIDGYCRLVNGATQSFIIRPQKEGERALPSIPKLANSEKQGMRTHAVSVSHCQHKVKKARRFLPLVFCSLEPPPTDEISGDETDDYAEIIDEEDTYTMPSKSYGIDEARDYEIQRERIELGRCIGEGQFGDVHQGVYLSPENPALAVAIKTCKNCTSDSVREKFLQEALTMRQFDHPHIVKLIGVITENPVWIIMELCTLGELRSFLQVRKYSLDLASLILYAYQLSTALAYLESKRFVHRDIAARNVLVSSNDCVKLGDFGLSRYMEDSTYYKASKGKLPIKWMAPESINFRRFTSASDVWMFGVCMWEILMHGVKPFQGVKNNDVIGRIENGERLPMPPNCPPTLYSLMTKCWAYDPSRRPRFTELKAQLSTILEEEKVQQEERMRMESRRQATVSWDSGGSDEAPPKPSRPGYPSPRSSEGFYPSPQHMVQTNHYQVSGYPGSHGIPAMAGSIYQGQASLLDQTELWNHRPQEMSMWQPSVEDSAALDLRGMGQVLPPHLMEERLIRQQQEMEEDQRWLEKEERFLKPDVRLSRGSIDREDGSFQGPTGNQHIYQPVGKPDPAAPPKKPPRPGAPGHLSNLSSISSPADSYNEGVKLQPQEISPPPTANLDRSNDKVYENVTGLVKAVIEMSSKIQPAPPEEYVPMVKEVGLALRTLLATVDETIPALPASTHREIEMAQKLLNSDLGELISKMKLAQQYVMTSLQQEYKKQMLTAAHALAVDAKNLLDVIDQARLKMLGQTRPH
**Q.** Which “in vitro kinase assay, phosphorylation of the recombinant substrate” value does the source give for B1 here?
**A.** The value was “while FAK does not”.
